Results: patent publication US20250290123
Read-outs that look alike come from different tables or passages of the source.

What was measured:
[1] = test system: LigAT_C-RNAseH-Ecoli (ATCV-1 ligase fused at C-terminus to inactive E. coli RNase H) (Acanthocystis turfacea chlorella virus 1 / Escherichia coli); details: CE ligation assay
[2] = test system: LigAT-HU (control ligase); details: CE ligation assay, control buffer, 2 h 37 C
[3] = test system: LigAT_C-RNAseH-Ecoli (ATCV-1 ligase fused at C-terminus to inactive E. coli RNase H) (Acanthocystis turfacea chlorella virus 1 / Escherichia coli); details: 5'-phosphate; Buffer 1B, 37-55 C, 2 h, 1 uM ligase
[4] = test system: LigAT-HU (control ligase); details: 5'-phosphate; control buffer 37 C; less than 5% at 55 C
[5] = test system: LigAT_C-RNAseH-Sto (Acanthocystis turfacea chlorella virus 1 / Sulfolobus tokodaii); details: 5'-phosphate; Buffer 2B, 37-55 C, 2 h

Substance | activity (% ligation yield) [1] | other results
AA junction RNA template with DNA substrates A and pA |  | activity (% ligation yield) ([1]; 5'-phosphate on SEQ 43, matched junction): 37
AC junction template and substrates | 36 | 
AG junction template and substrates | 23 | activity (% ligation yield) [2]: < 10
AT junction template and substrates | 37 | 
CA junction template and substrates | 39 | 
CC junction template and substrates | 33 | activity (% ligation yield) [2]: < 10
CG junction template and substrates | 17 | activity (% ligation yield) [2]: < 10
CT junction template and substrates | 43 | 
DNA padlock probes annealed to RNA template |  | activity (% ligated product) [3]: > 75; activity (% ligated product) [4]: 25; activity (% ligated product) [5]: > 75
GA junction template and substrates | 48 | 
GC junction template and substrates | 35 | activity (% ligation yield) [2]: < 10
GG junction template and substrates | 27 | activity (% ligation yield) [2]: < 10
GT junction template and substrates | 47 | 
TA junction template and substrates | 45 | 
TC junction template and substrates | 49 | 
TG junction template and substrates | 40 | 
TT junction template and substrates | 50 | 
